Measurements: publication PMC2132475

Target: α-dystroglycan on embryonic Xenopus myotomal muscle cells (Xenopus (endogenous in embryonic Xenopus muscle cells))
Assay: immunostaining of cells or tissue

“laminin fragment E3 (domain or fragment)” gave a percent inhibition of mAb IIH6 binding (at 33 nM E3) of 41% and a percent inhibition of mAb IIH6 binding (at 3.3 μM E3) of 94%.
